In patent publication US20240132572A1 one finds IC50 (nM), antiviral activity (cytopathic effect inhibition, A549 cells, EMCV), Kd and inhibition of osteopontin (OPN) production in stimulated human PBMC data, which are given here for 2 substances.

Assay [1] addresses IFN alpha receptor (IFNAR) (UniProt P17181). In words: cell-based or functional assay.
Assay [2] addresses IFN-alpha receptor 1 (IFNAR1) (UniProt P17181). In words: SPR (Biacore X100); rhIFNAR2 immobilised on CM5 chip; 6.25-100 nM IFN fusion mixed with 100 nM IFNAR1 injected (ternary complex). Background: In SPR one partner is held on a chip, and binding of the other changes the refractive index at the surface.

Consider “interferon alpha Fc fusion protein (IFNα-Fc)”, for which the IC50 (nM), antiviral activity (cytopathic effect inhibition, A549 cells, EMCV) in assay [1] turned out to be 0.0313 nM. Also, in assay [2], the Kd (commonly the equilibrium constant for the complex coming apart) amounted to 18 nM.

In assay [1], “natural fibroblast derived human IFNβ-1a (Rebif®) (from UniProt P01574 22-187) (ligand)” displayed an inhibition of osteopontin (OPN) production in stimulated human PBMC at 1.5 ng/mL of 88.4% and an inhibition of osteopontin (OPN) production in stimulated human PBMC at 10 ng/mL of 81.3%.
